From patent US20250082781A1, “METHODS OF LOWERING BLOOD GLUCOSE AND TREATING TYPE 2 DIABETES BY ACTIVATION OF PDE4D3” (Salk Institute for Biological Studies, priority 2021, published 2025)

Key:
[1] = tested on: oleic acid turnover; assay: 3H-labeled oleic acid turnover (in vivo lipolysis); parameters: species or system mouse
Description: FIGS. 1A-1I: FGF1 suppresses adipose lipolysis. (FIG. 1A) Ex-vivo lipolysis in gonadal white adipose tissue (gWAT) explants from wildtype (F1WT) and FGF1 KO (FIKO) mice 6 h after refeeding. Data are represented as mean±SEM (n=4, *p<0.05). (FIG. 1B) Lipolysis in mouse SVF-derived adipocytes measured by the cumulative release of free fatty acids (FFAs) into the media over 4 h. Cells were pretreated with vehicle (PBS) or FGF1 (100 ng/ml) for 10 min prior to the induction of lipolysis with 1 nM isoproterenol (ISO). Data are represented as mean±SEM (n=3, *p<0.05, **p<0.01). (FIG. 1C) Dose response of FGF1-induced suppression of lipolysis in 3T3-L1 adipocytes. Cells were pretreated with the indicated doses of FGF1 for 10 min prior to the induction of lipolysis with 100 nM isoproterenol (ISO), and the cumulative release of FFAs over 4 h was measured. Data are represented as mean±SEM (n=3, **p<0.01, ***p<0.001). […] Plasma radioactivity was measured by scintillation counting and normalized to t=1 min. Fractional oleic acid turnover rate was calculated by linear regression of natural log transformed data (adR1WT vehicle n=5, FGF1 n=4; adR1KO vehicle n=4, FGF1 n=5). […] Quantification of pHSL-S660 normalized to total HSL is shown in the right panel. […] Quantification of pHSL-S660 normalized to total HSL (right panel). […]

[2] = tested on: pyruvate carboxylase; assay: Hepatic pyruvate carboxylase (Pcx) activity assay; assay type: in vivo, mouse; conditions: HFD-fed adR1WT mice, FGF1 0.5 mg/kg
Description: Pcx activity was determined by malate dehydrogenase coupling method originally reported by Payne et al. (Payne and Morris, 1969). Briefly, mice were sacrificed by decapitation. Liver samples were rapidly frozen in liquid nitrogen within 5 seconds of excision designed to avoid loss of hepatic acetyl-CoA levels. Frozen liver samples were pulverized on dry ice and approximately 100 mg of tissues were homogenized with TissueLyzer in Pcx activity assay buffer (50 mM Tris pH8, 10 mM MgCl2, 10 mM NaHCO3). Homogenates were cleared by centrifugation at 14000 rpm for 10 minutes. Cleared supernatants were diluted in Pcx activity assay buffer to approximately 1 μg/ul. Approximately 5 μg protein was loaded onto 96-well plates and the total volume was brought up to 20 ul by Pcx activity assay buffer. Absorbance at 340 nm was monitored every 9 seconds at 37° C. immediately after the addition of 80 ul Pcx reaction buffer (50 mM Tris pH8, 10 mM MgCl2, 10 mM NaHCO3, 6.25 mM ATP, 0.125 mM NADH, 2.5 mM pyruvate, malate dehydrogenase 0.025 U/ml in Pcx activity assay buffer). Pcx activity was determined as the loss of absorbance at 340 nm over time normalized to protein concentration.

[3] = tested on: PDE4D; assay: Western blot of PDE4D phosphorylation in gWAT after injection; assay type: in vivo, mouse; conditions: 30 minutes after FGF1 injection 0.5 mg/kg
Description: Tissues were lysed in cold lysis buffer (50 mM Tris, pH 7.5, 150 mM NaCl, 1% NP40, 0.5% NaDoc, 0.1% SDS, 5% glycerol, 1 mM EDTA, protease and phosphatase inhibitors (complete and PhosSTOP (Roche)) by homogenization by bead-beater for 30 s. Samples were cleared for 10 min at 18,000 g at 4° C. and the middle clear phase was transferred to new tubes. A second 30 min centrifugation was performed and the middle clear phase was transferred to new tubes. Five ul protein extract was used for BCA assay to determine protein concentration. Samples were boiled in Laemmli buffer. SDS-PAGE and blotting were performed using gradient gels and Trans-Blot Turbo Transfer System (Bio-Rad). Antibodies used were PDE4D (12918-1-AP, Proteintech), pHSL-660 (4126S, Cell signaling), HSL (4107S, Cell Signaling), tubulin (CP06, Millipore Sigma), and GFP (A01388, GenScript). PDE4D3-pS44 phospho-specific antibody was generated using PDE4D3-S44 FRRHpSWISFDVDNGTSAGR peptide (SEQ ID NO: 20) (Mackenzie et al., 2002) by Pocono Rabbit Farm, using 70-day rabbit antibody production protocol and purified via affinity purification. Primary antibodies were incubated for 2 h at room temperature (RT) or overnight (ON) at 4° C. Blots were developed using SuperSignal West Pico PLUS Chemiluminescent Substrate (ThermoFisher Scientific) and imaged with BioRad GelDoc system.

## FGF1: Recombinant fibroblast growth factor 1 protein, dissolved in PBS, injected subcutaneously
[1]; adR1KO mice, FGF1 pretreatment
  oleic acid turnover: not affected
[1]; adR1WT mice, FGF1 0.5 mg/kg s.c. 6 h before infusion
  fractional turnover rate of oleic acid: reduced
[2]
  reduction in pyruvate carboxylase activity: ~50%
[3]
  PDE4D phosphorylation in gWAT: increase in PDE4D phosphorylation
